Data taken from paper PMC4785402, “Structure of ThiM from Vitamin B1 biosynthetic pathway of Staphylococcus aureus – Insights into a novel pro-drug approach addressing MRSA infections” (Scientific Reports, 2016).

Experiments:
Cc1nccn1CCO = experiment: purified protein; conditions: 4 mM ATP, 10 mM MgCl2, 50 mM potassium phosphate pH 7.5, 37 °C
SaThiM = molecular target: T1, SaThiM (Staphylococcus aureus, UniProt Q6GEY3); experiment: X-ray crystal structure of soaked complex, […] Å; assay type: binding; conditions: Mg2+ in four of the six active sites; active site at monomer interface
T1 construct: gene thiM; homotrimer, active sites between two monomers
T1 sequence (Q6GEY3 1-263): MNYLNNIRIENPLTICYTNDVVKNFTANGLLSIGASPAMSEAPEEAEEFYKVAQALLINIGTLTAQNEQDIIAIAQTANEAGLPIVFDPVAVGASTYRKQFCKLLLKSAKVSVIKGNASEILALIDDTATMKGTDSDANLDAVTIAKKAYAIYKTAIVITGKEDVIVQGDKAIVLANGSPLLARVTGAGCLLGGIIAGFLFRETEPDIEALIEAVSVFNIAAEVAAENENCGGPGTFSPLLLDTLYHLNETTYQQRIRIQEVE

purified protein = substrate: Cc1nn(C)c(C)c1CCO; experiment: purified protein; conditions: 4 mM ATP, 10 mM MgCl2, 50 mM potassium phosphate pH 7.5, 37 °C

“SaThiM (Staphylococcus aureus subsp. aureus MRSA252)” gave a Km (Cc1nccn1CCO) of 831 ± 169 µM and a kcat (Cc1nccn1CCO) of 3.63 ± 0.05 s⁻¹.

With `Cc1ncsc1CCO` [THZ, 5-(hydroxyethyl)-4-methylthiazole] the “X-ray crystal structure of soaked complex, 1.90 Å” value (SaThiM) was “THZ identically occupies all six active sites of the two trimers in the asymmetric unit”.

B1: SaThiM (Staphylococcus aureus subsp. aureus MRSA252) (protein)
chain: T1 sequence (Q6GEY3 1-263)
B1 gave a Km (purified protein) of 834 ± 147 µM and a kcat (purified protein) of 3.58 ± 0.133 s⁻¹.
